Measured values taken from article PMC12255305, “A transfer RNA methyltransferase with an unusual domain composition catalyzes 2′-O-methylation at position 6 in tRNA” (Nucleic Acids Research, 2025).
Residue numbers refer to the chain shown, from its start. Names and notes keep the numbering of the source.

T1: TrmTS (TK1257 gene product) (Thermococcus kodakarensis KUW1, UniProt Q5JGM1 1-355)
T1 sequence: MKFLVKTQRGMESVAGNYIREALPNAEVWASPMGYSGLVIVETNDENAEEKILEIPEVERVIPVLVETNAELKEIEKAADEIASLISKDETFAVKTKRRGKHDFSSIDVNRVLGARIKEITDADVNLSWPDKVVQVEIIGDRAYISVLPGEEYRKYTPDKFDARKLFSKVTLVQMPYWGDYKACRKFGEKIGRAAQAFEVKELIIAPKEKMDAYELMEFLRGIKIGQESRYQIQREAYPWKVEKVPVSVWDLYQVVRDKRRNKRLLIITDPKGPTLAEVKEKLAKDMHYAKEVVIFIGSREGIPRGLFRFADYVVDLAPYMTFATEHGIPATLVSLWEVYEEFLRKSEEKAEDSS

B1: TrmTS (TK1257 gene product), full-length wild type (enzyme, Thermococcus kodakarensis, UniProt Q5JGM1 1-355, looked up)
chain: T1 sequence
notes: TK1257 gene product (TrmTS), tRNA 2'-O-methyltransferase of Thermococcus kodakarensis strain KUW1, 355 amino acids; NFLD, THUMP, linker and SPOUT domains; gene amplified from the ATG to the stop codons; Cloned between NdeI and BamHI of pET30a with its own stop codons; also called full-length TrmTS; wild-type TrmTS; source: E. coli BL21 (DE3) Rosetta 2, purified (75°C heat step, HiTrap Q HP, …)
B2: TrmTS (TK1257 gene product) (Thermococcus kodakarensis KOD1; K155A) (protein)
chain: T1 sequence with K155A
B3: TrmTS (TK1257 gene product) (Thermococcus kodakarensis KOD1; E301A) (protein)
chain: T1 sequence with E301A
B4: tRNA-Trp C6G-G67C transcript (G6-C67) (structured_RNA)
RNA: GGGGGGGUGGUGUAGCCUGGUCCAUCAUCGCGGGCUCCAGACCCGCGGACCGGGGUUCAAAUCCCCGCCCCCCCACCA

Legend:
[1] = biological target: SPOUT catalytic domain of TrmTS (lacks NFLD and THUMP domain, residues 2-151) (Thermococcus kodakarensis) (UniProt Q5JGM1); experiment: SEC; Superdex 200 10/300, room temperature; 150 ug truncated TrmTS heated at 50°C for 10 min, run in buffer C (50 mM Tris-HCl pH 8.0, 500 mM KCl, 300 mM ammonium sulfate); size standards 29-150 kDa
purified protein = substrate: C[S+](CC[C@H](N)C(=O)O)C[C@H]1O[C@@H](n2cnc3c(N)ncnc32)[C@H](O)[C@@H]1O; experiment: purified protein; conditions: 35 μM T. kodakarensis tRNA-Trp transcript, 3 μM enzyme (not fully steady-state), 5 mM MgCl2, 300 mM KCl, pH 7.6, 75°C, mixture of unlabelled and 3H-labelled compound :1
[2] = biological target: the molecule itself; experiment: SEC; Superdex 200 10/300, room temperature; 200 ug full-length TrmTS heated at 75°C for 10 min, then run in buffer SEC (50 mM sodium phosphate pH 8.0, 500 mM KCl, 6 mM 2-mercaptoethanol, 5% glycerol); sample buffer also held 0.1% Triton X-100; size standards 29-150 kDa
[3] = biological target: T1, TrmTS (TK1257 gene product); experiment: competition (inhibition of methylation of wild-type tRNA-Trp transcript); SAM; competitor against wild-type tRNA-Trp transcript; Inhibition assay conditions (buffer, salt, pH, temperature) not given in the material; conditions: protein: recombinant; tags: none (untagged; native start and stop codons in pET30a); chain copies: 2; tRNA cloverleaf

| Molecule | Km (purified protein) | other results |
| --- | --- | --- |
| SPOUT catalytic domain of TrmTS (lacks NFLD and THUMP domain, residues 2-151) (from UniProt Q5JGM1 152-355) (domain or fragment) | – | stoichiometry N [1]: 2 |
| B1 | 23 µM | stoichiometry N [2]: 4 |
| B2 | 44 ± 7.6 µM | – |
| B3 | 21 ± 5.1 µM | – |
| B4 | – | IC50 [3]: ~30 µM |
